Literature values, collected in PMC6359293.

Tests used:
hsp70 (Homo sapiens) = hsp70 (Homo sapiens) (UniProt P0DMV8)
[1] = target: Phosphoprotein XD XD (Measles morbillivirus) (UniProt P03422)
UniProt P03422, sequence (P03422 457-507): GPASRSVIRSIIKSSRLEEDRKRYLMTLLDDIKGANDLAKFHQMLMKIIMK

UniProt P0DMV8, sequence (P0DMV8 2-641): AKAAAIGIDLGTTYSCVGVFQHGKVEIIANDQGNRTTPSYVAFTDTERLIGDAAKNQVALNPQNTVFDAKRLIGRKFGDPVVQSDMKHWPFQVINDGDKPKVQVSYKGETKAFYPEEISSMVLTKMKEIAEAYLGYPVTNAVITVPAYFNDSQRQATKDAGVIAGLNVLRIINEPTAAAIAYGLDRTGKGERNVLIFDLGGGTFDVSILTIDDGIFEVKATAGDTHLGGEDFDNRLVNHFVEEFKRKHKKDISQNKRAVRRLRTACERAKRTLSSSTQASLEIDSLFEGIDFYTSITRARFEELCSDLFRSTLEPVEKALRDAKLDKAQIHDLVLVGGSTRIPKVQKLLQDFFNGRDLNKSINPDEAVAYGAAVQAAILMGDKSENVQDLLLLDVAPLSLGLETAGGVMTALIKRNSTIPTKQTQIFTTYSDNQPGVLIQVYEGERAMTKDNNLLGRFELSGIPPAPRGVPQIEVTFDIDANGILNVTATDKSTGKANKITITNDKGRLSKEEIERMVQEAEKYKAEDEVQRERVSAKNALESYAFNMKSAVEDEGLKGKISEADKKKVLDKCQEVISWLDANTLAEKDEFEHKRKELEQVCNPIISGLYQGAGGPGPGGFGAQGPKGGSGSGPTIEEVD

For “Measles virus nucleoprotein NTAIL NTAIL (from UniProt P04851)”, the Kd (hsp70 (Homo sapiens)) is listed as 70 µM and the Kd [1] is listed as 3 µM.
